# Test results reported in the RNAGym collection of RNA variant scans (doi:10.1073/pnas.2313332121).
# B1: TPR t1 (parent)
# chain: GACCAAUCUGCCCUCAGAGCUCGAGAACAUCUUCGGAUGCAGAGGAGGCAGGCUUCGGUGGCGCGAUAGCGCCAACGUCCUCAACCUCCAAUGCAUCCCACCACAUGAUGAUGCCUGAAGAGCCUUGGUUUUUUG
# Variants of: B1
# Assay: polymerase ribozyme fitness, log enrichment relative to wild type (log ratio); higher = more active; in vitro selection for triplet polymerase activity
# Outline: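 Mutant libraries were PCR-built and transcribed for each subunit of a heterodimeric triplet polymerase ribozyme and selected for one round in triplicate at −7 °C, frozen, before gel excision of extended constructs and streptavidin-bead capture. Input and output libraries were Illumina-sequenced, keeping genotypes with ≥10 input reads and ≥1 read per output. Fitness is a logarithmic ratio of genotype to wild-type enrichment, in base 2, using inverse-variance-weighted replicate averages.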
row,Variant,polymerase ribozyme fitness (log ratio)
1,A16G A46C G120C,-0.418
2,U14G C72G,-2.44
3,U14G C72U,-1.52
4,U14G C72A,-2.6
5,C15A G57A C94U,-2.78
6,C15U G17A C40G C64A A90G C94A C104G G120C,-7.98
7,U14A C73A A74C G120A,-0.495
8,U14C A46U G60C U116C G117A,-5.66
9,A16C C22U G60C G93C A118U A121G,-6.04
10,C15G G25U A37U G69U G120C,-7.24
11,C15A G69U G77U G122A C123A,-1.41
12,U14G A50U G61C C86A,-4.54
13,C15U C40A G60C,-2.3
14,C15A C104U G110A,-2.85
15,U14G G61U C89A C99G G113C C115U,-6.86
16,U14G G48A A50G C72A G120C A121C,-1.94
17,C15A G44U,-2.85
18,C15U A41U G48U,-3.71
19,U14G C73A A90U,-3.66
20,C15U U130A,-1.54
21,A16U C40A G51A U92C G113C U116C G117C,-6.65
22,C15G G77C,-2.39
23,C15U C76A,-1.94
24,C15G C72U A100U,-3.69

row,Variant,polymerase ribozyme fitness (log ratio)
1,C15U A43C G69A C123U C124A,-5.69
2,C15G A16G C49U C56U G117U,-1.99
3,C15G C89U A90G,-2.42
4,C15U A16C,-2.44
5,U14C C15A A46C,-5.53
6,C15G G61C,-2.41
7,U14G G117A,-2.92
8,U14A G19C A83C C89A A111C C114G,-5.57
9,A16G C94A A95U,-4.15
10,C15G C40U,-2.91
11,C15G C40A,-3.83
12,A16U A50G G58A G60A C64U,-3.73
13,A16G G51C C82A C124G,-3.19
14,C15U A37G C53U U116C,-2.52
15,C15G C56G G57C C72G C104U U131C,-4.86
16,C15U G69C,-2.64
17,C15A G45A C89G G93C,-4.59
18,U14G A43G G52A C53A G77C A100U,-5.52
19,C15A C70G C99A G117A C124A G128A,-6.67
20,U14A C114U,-5.22
21,U14G A74U,-2.04
22,C15U G19A C89A,-5.15
23,C15A A74G U78G C79U G110U,-3.12
24,A16U C79U A91G C123G U131G,-1.49

row,Variant,polymerase ribozyme fitness (log ratio)
1,C15G A100U,-4.44
2,C15U C79U,-1.97
3,C15U C28U G44U C62U U87C U106C,-5.37
4,U14G G45C C94A C123U,-3.17
5,C15A A37G G45U C72A G93U U112C G122C C123G U125A,-3.59
6,C15G U132C,-2.23
7,A16G A50U U81G,-2.01
8,U14A U81A,-4.19
9,U14C G93A G120C,-1.52
10,C15U C88G A103C C115G,-6.98
11,A16U A18G,-3.02
12,A16C G117U A121C,-4.48
13,C15A G71U,-2.58
14,C15U C22A U54A C124A,-3.89
15,U14C G36C U133A,-4.29
16,U14G A18U G61A C115A U129A U132A,-3.2
17,C15A A84G C94U,-2.76
18,C15U C34G C49G G69U G120A,-3.56
19,C15U C56U G69U C102A,-5.73
20,U14G G47C C70U C85G G117A,-7.02
21,C15U G69A G113C,-5.7
22,C15U G110C,-4.52
23,C15A C64G C70A U92C G110C C115U G127U,-7.47
24,U14G C82U G93C,-2.71

row,Variant,polymerase ribozyme fitness (log ratio)
1,C15U G58A C85A G113U,-5.84
2,C15U U78G C86U G113C,-5.8
3,C15A C73U,-2.31
4,C15G C62G,-5
5,C15A A29U G69A G120C,-1.85
6,C15G C22A G52C A119G,-5.02
7,U14G A24G G61A U78C,-4.74
8,C15U A43U G69U C88U A91C G120C,0.39
9,U14G G61U,-1.11
10,C15U C115U,-1.42
11,C15U G25A,-4.87
12,U14C A37U,-1.93
13,C15A A66G,-2.15
14,A16U A41C G57A A84U,-3.81
15,C15U G52U,-2.36
16,C15A C53A G77A C101G G120A C124A,-1.12
17,C15G C86U G110A A118U,-3.91
18,A16C U38G C70A,-4.31
19,U14C U21C G61A C101U,-3.37
20,A16G A41U G60U C86G C124G,-2.13
21,A16U C102U,-3.23
22,A16U A18C C86A,-4.71
23,C15A G36A A50C G65A G69U,-7.38
24,C15U G17C C72A A121C,-1.65

row,Variant,polymerase ribozyme fitness (log ratio)
1,A16U C70U G117U C123A,-4.02
2,C15U G127A U129A,-4.11
3,C15U G42U U87G C88A C101U G113U,-5.85
4,A16G G35A A37G A84U A121G,-3.58
5,C15A U106C,-2.44
6,C15A U106A,-1.94
7,U14G A90C,-3.4
8,U14G U55C C70A,-3.8
9,C15U U54G,-1.23
10,C15G G63C A84C,-4.12
11,C15U U33G G61U U87A U112C,-4.85
12,C15G C73U A75G G107U U109A C124G,-5.07
13,A16C G60C A111G,-1.81
14,U14C C49U A50U U55A,-6.51
15,C15G C34A C70G A121C,-6.55
16,C15A U54A C56G,-3.37
17,C15U A50C,-1.84
18,U14A G71C,-3.09
19,A16U C49A G51U U55G U126G G128U,-5.16
20,U14G G113U,-5.7
21,U14G G113C,-4.24
22,U14G G128A,-3.77
23,C15A C49A C86A A95U G110A C123A,-5.76
24,C15G G17U C40U,-4.85

row,Variant,polymerase ribozyme fitness (log ratio)
1,C15A A90G G93A A103U G120U,-6.55
2,A16C C72G C82G G120C,-1.82
3,A16G G113C,-3.85
4,A16G G113A,-2.04
5,C15A A41U A43U G61A G113A G122A,-5.83
6,C15U C99U G120C G122U,-3.71
7,C15U G51A C72G A121C,-2.34
8,C15U G58C C72A C102G G107U A121C,-6.59
9,U14C U54G,-1.76
10,U14C G36U A41U,-5.76
11,C15U U21C C49G G117A,0.389
12,A16G C70U C76A,-2.84
13,C15G A84U,-2.56
14,C15A G52U C94G,-3.9
15,C15A C53A C72G A103C G113A G117A,-6.79
16,C15G A24G C89G C124G,-6.51
17,A16C U106A,-2.82
18,C15U A18G U59A G93C C104U,-5.54
19,C15A U32C,-1.58
20,U14G A50G A84G,-3.03
21,A16C C40U G52A U59G U112A,-1.53
22,U14G U38G,-3.56
23,C15A G60U U131A,-1.3
24,C15G C124U,-0.148

row,Variant,polymerase ribozyme fitness (log ratio)
1,C15A G39A G69A U87G U112G,-4.24
2,C15U A74U A83C A100U U116A,-5.53
3,U14G U21C,-2.74
4,U14G A27C C85A U109A C124A,-6.27
5,U14A G48U,-2.9
6,C15A C40A C56G,-6.31
7,C15A C70U C114U,-5.04
8,C15U A91G A105G U112A,-3.8
9,A16U C70A,-3.19
10,U14G A46U A74G C101A,-3.18
11,A16G G61C A84C G117A A119G,-2.13
12,C15U C72A C73A U81A A84G,-4.77
13,U14G C123U,-0.161
14,A16U C62U,-1.92
15,C15A U116A,-4.69
16,C15A A46C,-3.02
17,C15G C79G,-4.93
18,U14G G48U C94A C101U G120C,-2.13
19,C15A A24G,-5.73
20,U14G G71A,-1.59
21,C15U A26G G63C G71A C102U U109G U112A U129A,-3.42
22,C15U A16U G23A G63A G93C C114G,-7.78
23,C15A C72G,-2.3
